± gives the standard deviation of the averaged measurements.
B1: library; a variant is named by its letters at N, in order (parent)
chain: GCUGUCACCGGUGCUUGGUACGUUAUAUUCAGCCGGUCUGAUGAGUCUNNNNNNAGACGAAACAGC

Legend:
(6R,S)-folinic acid [1] = variants of: B1; experiment: normalized RNA/DNA level without ligand (relative to sTRSVctl = 100) (log10 (% of sTRSVctl)); HEK293T overexpressing SLC46A1; higher = less ribozyme self-cleavage, higher mRNA level; conditions: without (6R,S)-folinic acid; ligand present: no
Outline: (§1)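 HEK293T cells received ligand, where used, 1 h before being transfected with 4 µg per 6-well well of library plasmids encoding reporter-linked ribozyme switches. After 72 h, RNA was extracted with EDTA and sequenced. RNA level was derived from RNA reads per DNA read, normalized to a spiked-in non-cleaving sequence or the top sequences, then scaled and log-transformed. Values were ×100 then log10, the top set was 25 sequences, and the minimum was 100 DNA reads.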

(6R,S)-folinic acid [2] = variants of: B1; experiment: normalized RNA/DNA level with ligand (relative to sTRSVctl = 100) (log10 (% of sTRSVctl)); HEK293T overexpressing SLC46A1; ligand concentration (+) RNA-Seq: 6 mM; higher = less ribozyme self-cleavage, higher mRNA level; conditions: with (6R,S)-folinic acid; ligand present: yes
Outline: as §1

Variant | normalized RNA/DNA level without ligand (log10) ((6R,S)-folinic acid [1]) | normalized RNA/DNA level with ligand (log10) ((6R,S)-folinic acid [2])
ACUUCC | 2.058 ± 0.009 | 2.0589 ± 0.002
ACUUCU | 2.031 ± 0.0021 | 1.99 ± 0.059
ACUUCG | 1.968 ± 0.0047 | 2.02 ± 0.029
ACUUCA | 2.01 ± 0.03 | 2 ± 0.04
CCUGCC | 2.058 ± 0.0075 | 2 ± 0.068
CCUGCA | 2.047 ± 0.0035 | 2.059 ± 0.0067
CCUGCG | 2.01 ± 0.016 | 2.033 ± 0.02
CCUCUC | 2.072 ± 0.018 | 2.04 ± 0.078
CCUCUG | 2.035 ± 0.011 | 2 ± 0.04
CCUCUU | 2.033 ± 0.012 | 2.022 ± 0.0093
CCUCUA | 2.029 ± 0.0036 | 2.03 ± 0.031
CCUUCC | 2.067 ± 0.019 | 2.01 ± 0.024
CCUUCU | 2.01 ± 0.024 | 2.02 ± 0.041
CCUUCG | 2.017 ± 0.019 | 2.045 ± 0.012
CCUUCA | 2.07 ± 0.021 | 2.04 ± 0.079
CGAAUU | 2 ± 0.026 | 2.01 ± 0.037
CGAAUC | 2.05 ± 0.019 | 2.03 ± 0.034
CGAAUG | 2.0224 ± 0.0012 | 2.034 ± 0.012
GGAACA | 2.0061 ± 0.00047 | 2.02 ± 0.043
GGAACC | 2.036 ± 0.01 | 2.04 ± 0.06
GGAACU | 2.035 ± 0.01 | 2.029 ± 0.016
GGAACG | 2 ± 0.027 | 2.03 ± 0.032
UCUUCA | 2.028 ± 0.0079 | 2.04 ± 0.046

Variant | normalized RNA/DNA level without ligand (log10) ((6R,S)-folinic acid [1]) | normalized RNA/DNA level with ligand (log10) ((6R,S)-folinic acid [2])
UCUUCU | 2.064 ± 0.0051 | 2.095 ± 0.011
UCUUCC | 2.026 ± 0.018 | 2.043 ± 0.018
UCUUCG | 1.91 ± 0.02 | 2.0469 ± 0.0016
CGACGG | 1.926 ± 0.014 | 1.973 ± 0.015
CGACGC | 2.03 ± 0.0041 | 2.01 ± 0.038
CGACGA | 2.001 ± 0.011 | 2 ± 0.05
CGACGU | 1.995 ± 0.002 | 2.02 ± 0.021
GCUCUA | 2.01 ± 0.024 | 2.03 ± 0.018
GCUCUC | 2.126 ± 0.0057 | 2.08 ± 0.039
GCUCUU | 2.038 ± 0.014 | 1.998 ± 0.011
GCUGAC | 1.986 ± 0.0051 | 2.01 ± 0.045
GCUGAG | 1.974 ± 0.013 | 2.04 ± 0.039
GCUGGG | 1.979 ± 0.0048 | 2.01 ± 0.021
GCUGGA | 2.06 ± 0.0022 | 2.07 ± 0.046
GCUGGC | 1.964 ± 0.017 | 1.916 ± 0.0083
UCUGUC | 2.056 ± 0.0093 | 2.07 ± 0.075
UCUGUA | 1.961 ± 0.0025 | 2.04 ± 0.026
UCUGUG | 1.773 ± 0.0022 | 2 ± 0.049
AGACUA | 1.977 ± 0.0092 | 1.98 ± 0.043
AGACUG | 2.003 ± 0.0063 | 2.01 ± 0.04
AGACUC | 2.038 ± 0.0045 | 2.05 ± 0.021
AGACUU | 2.021 ± 0.0033 | 1.99 ± 0.024
GGAAAU | 1.98 ± 0.025 | 2.04 ± 0.027

Variant | normalized RNA/DNA level without ligand (log10) ((6R,S)-folinic acid [1]) | normalized RNA/DNA level with ligand (log10) ((6R,S)-folinic acid [2])
GGACCU | 2.062 ± 0.0094 | 2.02 ± 0.033
GGACCA | 2.054 ± 0.017 | 2.02 ± 0.029
GGACCC | 2.045 ± 0.019 | 2.027 ± 0.015
AGACAA | 2.004 ± 0.0066 | 2.01 ± 0.03
AGACAC | 2.0193 ± 0.00083 | 2.01 ± 0.028
AGACAU | 1.994 ± 0.0052 | 2.02 ± 0.026
CGAAGU | 1.99 ± 0.03 | 2 ± 0.032
CGAAGG | 1.859 ± 0.012 | 1.94 ± 0.022
CGAAGA | 1.986 ± 0.0023 | 2.01 ± 0.049
CGAAGC | 2.02 ± 0.033 | 2.04 ± 0.042
ACUGAU | 1.9488 ± 0.0011 | 2 ± 0.031
ACUGAC | 2.002 ± 0.0086 | 1.999 ± 0.0088
ACUCGG | 1.979 ± 0.013 | 2.02 ± 0.024
ACUCGA | 1.994 ± 0.019 | 2.03 ± 0.025
ACUCGU | 2.028 ± 0.016 | 1.983 ± 0.016
ACUCGC | 2.034 ± 0.012 | 2.01 ± 0.041
ACUGGA | 1.943 ± 0.0043 | 2 ± 0.058
ACUGGC | 2.045 ± 0.016 | 2.005 ± 0.016
ACUGGU | 1.952 ± 0.016 | 2 ± 0.07
GGAAGC | 1.9092 ± 0.0019 | 1.99 ± 0.044
GGAAGU | 1.978 ± 0.0031 | 2.01 ± 0.032
GGAAGG | 1.95 ± 0.022 | 2.03 ± 0.04
GCUCGG | 2.034 ± 0.016 | 2.03 ± 0.026

Variant | normalized RNA/DNA level without ligand (log10) ((6R,S)-folinic acid [1]) | normalized RNA/DNA level with ligand (log10) ((6R,S)-folinic acid [2])
GCUCGC | 2.02 ± 0.027 | 2.0264 ± 0.00071
GCUCGA | 2.039 ± 0.0067 | 2.02 ± 0.065
GCUGCG | 2.002 ± 0.0047 | 2.05 ± 0.029
GCUGCA | 2.01 ± 0.022 | 2.03 ± 0.047
GCUGCU | 2.04 ± 0.027 | 2.055 ± 0.018
ACUUUC | 2.041 ± 0.0054 | 2.05 ± 0.038
ACUUUG | 1.94 ± 0.043 | 2.001 ± 0.015
ACUUUU | 2.037 ± 0.012 | 2 ± 0.038
GCUUCG | 2.024 ± 0.015 | 2.02 ± 0.025
GCUUCU | 2.0037 ± 0.0006 | 2.01 ± 0.048
GCUUCC | 2.029 ± 0.0087 | 2.04 ± 0.034
GCUCCG | 2.027 ± 0.0072 | 2.05 ± 0.055
GCUCCC | 2.06 ± 0.031 | 2.06 ± 0.036
GCUCCU | 2.09 ± 0.024 | 2.07 ± 0.04
UCUCGC | 2.1 ± 0.032 | 2.05 ± 0.028
UCUCGG | 2.03 ± 0.034 | 2.042 ± 0.0089
UCUGCU | 2.069 ± 0.0056 | 2.07 ± 0.0045
UCUGCA | 1.9967 ± 0.0014 | 2.06 ± 0.022
UCUGCG | 1.826 ± 0.008 | 2.03 ± 0.034
UCUGCC | 1.981 ± 0.0055 | 2.02 ± 0.025
UGAGAC | 1.912 ± 0.011 | 1.98 ± 0.028
UGAAUU | 1.986 ± 0.0089 | 2 ± 0.036
UGAAUA | 1.965 ± 0.0093 | 2.03 ± 0.026

Variant | normalized RNA/DNA level without ligand (log10) ((6R,S)-folinic acid [1]) | normalized RNA/DNA level with ligand (log10) ((6R,S)-folinic acid [2])
UGAAUC | 2.07 ± 0.021 | 2.06 ± 0.047
ACUUGC | 2.036 ± 0.0029 | 2.03 ± 0.03
ACUUGU | 2.062 ± 0.011 | 2.064 ± 0.013
ACUUGA | 1.9759 ± 0.0013 | 2.03 ± 0.041
GGACGC | 1.949 ± 0.0027 | 1.96 ± 0.025
GGACGG | 2.008 ± 0.015 | 2.04 ± 0.033
AGACGG | 1.934 ± 0.011 | 2.01 ± 0.027
AGACGU | 1.976 ± 0.0062 | 2.01 ± 0.026
UCUCCC | 2.07 ± 0.021 | 2.06 ± 0.05
UCUCCU | 2.01 ± 0.028 | 2.02 ± 0.032
UCUCCG | 1.96 ± 0.065 | 2.022 ± 0.013
AGAAAG | 1.901 ± 0.0062 | 2.01 ± 0.022
AGAAAA | 1.984 ± 0.0076 | 2 ± 0.034
AGAAAU | 2.026 ± 0.0034 | 2.01 ± 0.044
AGAAAC | 2.0013 ± 0.00088 | 2.01 ± 0.026
GCUGUA | 2.019 ± 0.018 | 2.04 ± 0.033
GCUGUC | 2.0466 ± 0.00088 | 2.02 ± 0.026
GCUGUG | 2.03 ± 0.028 | 2.04 ± 0.055
CGACUG | 2.028 ± 0.0025 | 2.014 ± 0.011
CGACUA | 2.014 ± 0.0047 | 2.042 ± 0.0086
CGACUC | 2.08 ± 0.023 | 2.04 ± 0.07
CGACUU | 2.01 ± 0.035 | 2.05 ± 0.025
GGACUC | 2.0453 ± 0.0012 | 2.05 ± 0.03

Source: the supplement of paper PMC6757056
